Drawing on the Immune Epitope Database (IEDB), this text covers Kd for three sequences.

In test [1] the target is HLA-B*51:01. The experiment in a line: IEDB peptide-MHC binding, purified MHC/direct/fluorescence; filed as Kd, often an IC50 or EC50 that approximates it; ≥ and ≤ were set here for values at or beyond the usual limits of such assays. The note with it: source organism: Escherichia coli O157:H7.
Test [2] has as its target HLA-B*07:02. The test is described as above. The note with it: source organism: Escherichia coli O157:H7.
Test [3] addresses HLA-A*29:02. The experiment in a line: IEDB peptide-MHC binding, purified MHC/competitive/fluorescence; filed as Kd, often an IC50 or EC50 that approximates it; ≥ and ≤ were set here for values at or beyond the usual limits of such assays. The note with it: source organism: Giardia lamblia ATCC 50803.
In test [4] the target is HLA-B*39:01. Kind of test: IEDB peptide-MHC binding, purified MHC/direct/fluorescence; filed as Kd, often an IC50 or EC50 that approximates it; ≥ and ≤ were set here for values at or beyond the usual limits of such assays. The note with it: source organism: Influenza A virus (A/kunke/1/71(H3N2)).

Take LPQRHHIML: the results for the Kd in test [1] and in test [2] were no less than 20000 nM and 1.5 nM, respectively.
With PPIPIWLLF, the Kd in test [3] was found to be 197 nM.
HHAVPNGTL had a Kd in test [4] of 52.1 nM.

In general, Kd refers to the free concentration of one partner at which half of the binding sites on the other are occupied at equilibrium, for simple one-to-one binding.
